Paper PMC10042821, “Cryo-EM structure of human eIF5A-DHS complex reveals the molecular basis of hypusination-associated neurodegenerative disorders” (Nature Communications, 2023)

How the values were obtained:
Experiment in all cases: MST; His-tagged DHS variants labelled with RED-tris-NTA 2nd Generation, 8.32 nM; eIF5A titrated, sixteen dilutions 0.00175–57.5 μM; 50 mM Tris, 200 mM NaCl, 5 mM β-ME pH 8; Monolith NT.115, 40% excitation power, 60% MST power; no NAD or SPD
Settings in all cases: both partners purified
[1] = molecular target: T1, deoxyhypusine synthase Q83A, His-tagged (human, UniProt P49366 1-369, Q83A, RED-tris-NTA 2nd Generation dye on the His tag)
T1 construct: human deoxyhypusine synthase, Uniprot P49366, residues 1-369, site-directed mutant of the pET24d full-length construct; also called DHS Q83A; source: E. coli, purified; not shown: 6xHis, N-terminal, kept
T1 sequence (looked up): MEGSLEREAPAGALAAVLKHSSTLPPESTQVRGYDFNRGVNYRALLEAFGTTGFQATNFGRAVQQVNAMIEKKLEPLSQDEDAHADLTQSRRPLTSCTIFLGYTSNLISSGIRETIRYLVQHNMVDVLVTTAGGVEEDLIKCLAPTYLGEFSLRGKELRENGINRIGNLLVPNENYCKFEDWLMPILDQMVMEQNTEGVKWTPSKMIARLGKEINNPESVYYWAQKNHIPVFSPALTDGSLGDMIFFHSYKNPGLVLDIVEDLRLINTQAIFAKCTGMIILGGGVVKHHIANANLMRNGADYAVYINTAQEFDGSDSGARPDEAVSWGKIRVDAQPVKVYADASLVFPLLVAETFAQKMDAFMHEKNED

[2] = molecular target: T2, deoxyhypusine synthase Y176A, His-tagged (human, UniProt P49366 1-369, Y176A, RED-tris-NTA 2nd Generation dye on the His tag)
T2 construct: human deoxyhypusine synthase, Uniprot P49366, residues 1-369, site-directed mutant of the pET24d full-length construct; also called DHS Y176A; source: E. coli, purified; not shown: 6xHis, N-terminal, kept
T2 sequence (looked up): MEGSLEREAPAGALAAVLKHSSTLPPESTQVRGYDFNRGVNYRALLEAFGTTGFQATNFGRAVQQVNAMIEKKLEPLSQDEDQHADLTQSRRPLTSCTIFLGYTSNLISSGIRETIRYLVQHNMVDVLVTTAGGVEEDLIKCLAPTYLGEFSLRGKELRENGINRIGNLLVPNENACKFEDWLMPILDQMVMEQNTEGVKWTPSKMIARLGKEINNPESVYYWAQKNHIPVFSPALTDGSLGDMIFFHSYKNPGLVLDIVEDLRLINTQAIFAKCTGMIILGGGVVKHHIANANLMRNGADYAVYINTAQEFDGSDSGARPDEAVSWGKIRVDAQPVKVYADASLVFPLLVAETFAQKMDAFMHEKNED

[3] = molecular target: T3, deoxyhypusine synthase F247A, His-tagged (human, UniProt P49366 1-369, F247A, RED-tris-NTA 2nd Generation dye on the His tag)
T3 construct: human deoxyhypusine synthase, Uniprot P49366, residues 1-369, site-directed mutant of the pET24d full-length construct; also called DHS F247A; source: E. coli, purified; not shown: 6xHis, N-terminal, kept
T3 sequence (looked up): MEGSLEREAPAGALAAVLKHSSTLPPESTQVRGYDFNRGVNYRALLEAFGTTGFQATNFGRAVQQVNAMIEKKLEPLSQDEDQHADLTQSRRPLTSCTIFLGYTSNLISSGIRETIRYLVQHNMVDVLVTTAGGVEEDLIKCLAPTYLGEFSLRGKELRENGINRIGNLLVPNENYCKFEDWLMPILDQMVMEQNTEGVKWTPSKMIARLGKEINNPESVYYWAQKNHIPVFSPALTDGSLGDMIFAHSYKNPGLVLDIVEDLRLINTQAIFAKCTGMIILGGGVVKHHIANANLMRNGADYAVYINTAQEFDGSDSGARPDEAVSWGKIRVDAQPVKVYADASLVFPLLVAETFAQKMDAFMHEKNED

[4] = molecular target: T4, deoxyhypusine synthase I271A, His-tagged (human, UniProt P49366 1-369, I271A, RED-tris-NTA 2nd Generation dye on the His tag)
T4 construct: human deoxyhypusine synthase, Uniprot P49366, residues 1-369, site-directed mutant of the pET24d full-length construct; also called DHS I271A; source: E. coli, purified; not shown: 6xHis, N-terminal, kept
T4 sequence (looked up): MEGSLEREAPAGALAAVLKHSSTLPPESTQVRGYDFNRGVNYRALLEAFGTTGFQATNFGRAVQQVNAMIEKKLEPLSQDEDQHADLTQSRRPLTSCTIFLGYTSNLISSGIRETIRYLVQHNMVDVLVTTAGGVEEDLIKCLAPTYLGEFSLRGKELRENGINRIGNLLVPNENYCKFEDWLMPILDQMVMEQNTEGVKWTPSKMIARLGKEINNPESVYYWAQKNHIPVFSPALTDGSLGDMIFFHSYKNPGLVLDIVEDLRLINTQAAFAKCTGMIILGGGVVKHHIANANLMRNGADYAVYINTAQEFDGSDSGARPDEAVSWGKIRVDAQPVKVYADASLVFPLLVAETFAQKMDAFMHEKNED

Kd [1]: > 5 µM
Kd [2]: 1.09 ± 0.548 µM
Kd [3]: > 5 µM
Kd [4]: 0.056 ± 0.016 µM
B1: eukaryotic translation factor 5A (eIF5A-1), residues 15-151 (domain or fragment)
chain: not shown
notes: human eIF5A1, residues 15-151, from pET28-MHL (Addgene); The purification protocol removes the tag with TEV; source: E. coli, purified (HisTrap, TEV cleavage, reverse HisTrap, SEC); not shown: His tag, N-terminal, cleaved
